The values below come from patent publication US20160251438A1 (LUDWIG INSTITUTE FOR CANCER RESEARCH, published 2016).

One experiment has as its target T1, human TGF-β1 (latent) (human, UniProt P01137 30-390).
T1 construct: from transfected hTGFB1; also called hTGF-β1; hTGFB1
Nature of the experiment: FACS, 293T + hTGFB1 only [cont.) B]. The source says: No latent TGF-β is detected on their surface with an anti-LAP antibody. Transfection of GARP or TGFB1 alone induces no or low surface LAP, respectively, whereas co-transfection of GARP and TGFB1 induces high surface LAP as a result of latent TGF-β1 binding and presentation by GARP (FIG. 14, part B, left histograms).
In general terms: In flow cytometry, cells or beads pass a laser one at a time.

The target in experiment [1] is GARP M111T/A112G/T113M / TGF-β1 complex (human, UniProt Q14392 20-662; P01137 30-390). Nature of the experiment: FACS titration on transfected 293T; EC50 mutant / EC50 WT [cont.) B]. How it is done: (§1) Intensities of staining at each concentration of antibody relative to the maximal intensity measured at 5 μg/ml were determined as follows:
(§2) The relative staining intensities were plotted according to the concentration of antibody used for staining, and a non-linear regression analysis was used with the Prism software to determine an EC₅₀ value for binding of the antibody to the WT and to each of the various mutant GARP/TGF-β1 complexes. If the ratio between the EC₅₀ measured on the mutant and the EC₅₀ measured on the WT was >2, the mutation was considered to induce a reduced avidity for binding by the antibody. The ratio of EC₅₀ (mutant vs WT) for MHG-8 and LHG-10 are indicated below each mutation on FIG. 19, parts A and B, respectively.

In experiment [2] the target is GARP G118L/G119L / TGF-β1 complex (human, UniProt Q14392 20-662; P01137 30-390). The description is as above. How it is done: as §1, §2
Experiment [3] has as its target GARP Y137H / TGF-β1 complex (human, UniProt Q14392 20-662; P01137 30-390). The experiment is described as above. How it is done: as §1, §2
Experiment [4] deals with GARP S138G / TGF-β1 complex (human, UniProt Q14392 20-662; P01137 30-390). The description is as above. As to the method: as §1, §2
In experiment [5] the target is GARP G139N / TGF-β1 complex (human, UniProt Q14392 20-662; P01137 30-390). The description is as above. How it is done: as §1, §2
In experiment [6] the target is GARP R143Y / TGF-β1 complex (human, UniProt Q14392 20-662; P01137 30-390). The experiment is described as above. How it is done:
as §1, §2

The target of experiment [7] is GARP T162D / TGF-β1 complex (human, UniProt Q14392 20-662; P01137 30-390). Described as above. How it is done: as §1, §2
The target in experiment [8] is GARP R163E / TGF-β1 complex (human, UniProt Q14392 20-662; P01137 30-390). The description is as above. As to the method: as §1, §2
The target of experiment [9] is GARP T165A / TGF-β1 complex (human, UniProt Q14392 20-662; P01137 30-390). Described as above. How it is done: as §1, §2
The target in experiment [10] is GARP R166M/H167E / TGF-β1 complex (human, UniProt Q14392 20-662; P01137 30-390). The description is as above. How it is done:
as §1, §2

The target of experiment [11] is GARP / TGF-β1 E146R complex (human, UniProt Q14392 20-662; P01137 30-390). The experiment is described as above. How it is done:
as §1, §2

Experiment [12] addresses GARP / TGF-β1 Q269Y complex (human, UniProt Q14392 20-662; P01137 30-390). Described as above. How it is done: as §1, §2
Experiment [13] deals with GARP / TGF-β1 H270Y complex (human, UniProt Q14392 20-662; P01137 30-390). The experiment is described as above. As to the method: as §1, §2
In experiment [14] the target is GARP / TGF-β1 Q272Y complex (human, UniProt Q14392 20-662; P01137 30-390). The description is as above. How it is done: as §1, §2
For experiment [15], the target named is GARP / TGF-β1 Y284A complex (human, UniProt Q14392 20-662; P01137 30-390). Described as above. How it is done: as §1, §2
Experiment [16] addresses GARP / TGF-β1 Y336A complex (human, UniProt Q14392 20-662; P01137 30-390). The description is as above. How it is done:
as §1, §2

Experiment [17] deals with GARP / TGF-β1 S337A complex (human, UniProt Q14392 20-662; P01137 30-390). Described as above. How it is done: as §1, §2
The target of experiment [18] is GARP / TGF-β1 K338E complex (human, UniProt Q14392 20-662; P01137 30-390). Described as above. How it is done: as §1, §2

GARP S138G / TGF-β1 complex, sequence (Q14392 20-662 S138G limits assumed, chain 1 of 2): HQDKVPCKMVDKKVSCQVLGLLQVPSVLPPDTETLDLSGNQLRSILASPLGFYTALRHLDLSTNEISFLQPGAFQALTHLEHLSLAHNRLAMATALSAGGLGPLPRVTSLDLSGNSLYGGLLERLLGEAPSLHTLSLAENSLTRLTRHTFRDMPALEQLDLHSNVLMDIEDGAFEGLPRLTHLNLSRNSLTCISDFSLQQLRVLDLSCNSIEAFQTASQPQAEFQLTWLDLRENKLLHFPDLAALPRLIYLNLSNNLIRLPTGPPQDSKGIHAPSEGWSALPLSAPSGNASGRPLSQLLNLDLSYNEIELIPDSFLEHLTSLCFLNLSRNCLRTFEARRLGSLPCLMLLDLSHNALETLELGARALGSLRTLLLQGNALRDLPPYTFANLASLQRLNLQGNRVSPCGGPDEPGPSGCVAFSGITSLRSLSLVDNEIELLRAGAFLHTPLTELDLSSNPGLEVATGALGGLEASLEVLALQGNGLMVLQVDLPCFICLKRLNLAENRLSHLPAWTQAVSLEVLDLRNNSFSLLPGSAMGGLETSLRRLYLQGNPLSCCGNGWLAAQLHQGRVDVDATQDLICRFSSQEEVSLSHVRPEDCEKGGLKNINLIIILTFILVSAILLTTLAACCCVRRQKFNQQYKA
GARP S138G / TGF-β1 complex, sequence (P01137 30-390 limits assumed, stated change not applied, chain 2 of 2): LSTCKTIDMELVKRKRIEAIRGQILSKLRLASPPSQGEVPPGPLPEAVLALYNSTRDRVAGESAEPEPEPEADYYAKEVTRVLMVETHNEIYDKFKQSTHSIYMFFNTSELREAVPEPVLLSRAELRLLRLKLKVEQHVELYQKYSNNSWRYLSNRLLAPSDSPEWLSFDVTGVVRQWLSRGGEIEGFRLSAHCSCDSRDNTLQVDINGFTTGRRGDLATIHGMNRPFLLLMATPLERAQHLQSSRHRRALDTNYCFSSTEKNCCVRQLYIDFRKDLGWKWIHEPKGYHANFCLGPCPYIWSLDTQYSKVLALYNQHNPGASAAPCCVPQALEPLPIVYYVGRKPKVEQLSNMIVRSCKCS
GARP M111T/A112G/T113M / TGF-β1 complex, sequence (Q14392 20-662 M111T/A112G/T113M limits assumed, chain 1 of 2): as the sequence (Q14392 20-662 S138G limits assumed, chain 1 of 2) above, with M92T, A93G, T94M, G119S counted along it
GARP M111T/A112G/T113M / TGF-β1 complex, sequence (P01137 30-390 limits assumed, chain 2 of 2): as the sequence (P01137 30-390 limits assumed, stated change not applied, chain 2 of 2) above
GARP / TGF-β1 H270Y complex, sequence (Q14392 20-662 limits assumed, chain 1 of 2): as the sequence (Q14392 20-662 S138G limits assumed, chain 1 of 2) above, with G119S counted along it
GARP / TGF-β1 H270Y complex, sequence (P01137 30-390 H270Y limits assumed, chain 2 of 2): as the sequence (P01137 30-390 limits assumed, stated change not applied, chain 2 of 2) above, with H241Y counted along it
GARP / TGF-β1 E146R complex, sequence (Q14392 20-662 limits assumed, chain 1 of 2): as the sequence (Q14392 20-662 S138G limits assumed, chain 1 of 2) above, with G119S counted along it
GARP / TGF-β1 E146R complex, sequence (P01137 30-390 E146R limits assumed, chain 2 of 2): as the sequence (P01137 30-390 limits assumed, stated change not applied, chain 2 of 2) above, with E117R counted along it
T1 sequence (P01137 30-390 limits assumed): as the sequence (P01137 30-390 limits assumed, stated change not applied, chain 2 of 2) above

B1: LHG-10 (antibody, human IgG1, V domains shown)
VH: EVQLVQPGAELRNSGASVKVSCKASGYRFTSYYIDWVRQAPGQGLEWMGRIDPEDGGTKYAQKFQGRVTFTADTSTSTAYVELSSLRSEDTAVYYCARNEWETVVVGDLMYEYEYWGQGTQVTVSS
VL: DIQMTQSPTSLSASLGDRVTITCQASQSISSYLAWYQQKPGQAPKLLIYGASRLQTGVPSRFSGSGSGTSFTLTISGLEAEDAGTYYCQQYDSLPVTFGQGTKVELK
notes: llama-derived V regions in a full human IgG1
As for B1, the binding result with human TGF-β1 (latent) is “no binding”. For the same molecule, the “Ratio of EC50 (mutant / wt)” value in experiment [1] stood at 1.2; in experiment [2], 0.8; in [3] it was 0.6; in [4] it was 0.6; in [5] it was 1.2; in [6], 1.6. For the same molecule, the “Ratio of EC50 (mutant / wt)” value turned out to be 2.5 in experiment [7]; 4.1 in experiment [8]; 1 in [9]; 1.5 in experiment [10]; 0.8 in [11]; 0.8 in experiment [12]. Besides, the “Ratio of EC50 (mutant / wt)” value was found to be 0.7 in experiment [13]; 0.9 in experiment [14]; 1.9 in experiment [15]; 1.9 in experiment [16]; 1.4 in experiment [17]; 7.2 in experiment [18].
